# Measured values: the nanobody polyreactivity screen of Harvey et al. (2022)
# Experiment: yeast display, Sf9 membrane polyspecificity reagent, FACS + sequencing; frameworks hold sequencing errors
# Method in brief: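 Genes from sorted yeast were amplified by colony PCR, read by MiSeq 2 × 250 sequencing and filtered on CDR length. These cells carried a synthetic nanobody library in Saccharomyces cerevisiae BJ5465 and were sorted by FACS into low and high (top ~1%) gates on anti-HA and streptavidin fluorescence. Polyreactivity is labelled according to the gate of origin.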
row,Sequence,polyreactivity (PSR sort gate)
1,QVQLVESGGGLVQAGGSLRLSCAASGSTIYNNAMGWYRQAPGKERELVAAITRTGGRTYYADSVKGRFTITRDNAKNTVYLQMNSLKREDTAVYYCAATYPSGRDLSFDYWGQGTQVTVSS,high polyreactivity
2,QVQLVESGGGLVQAGGSLRLSCAASGSTIYRNTMGWYRQAPGKERELVAAISRSGSSTYYADSVKGRFTISRDNAKNTVFLQINSLKPEDTAVYYCAKEGLSYRYYYWGQGTQLTVSS,high polyreactivity
3,QVQLVESGGGLVQAGGSLRLSCAASGSTIYSYTMGWYRQAPGKERELVAAISRGSSTYYADSVKGRFTISRDNAKNTVYLQMNSLKPEDTAVYYCAAQYRQIYYSYFEYYWGQGTQVTVSS,high polyreactivity
4,QVQLVESGGGLVQAGGSLRLSCAASGSTLANYAMGWYRQAPGKERELVAAINSGGSTYYADSVKGRFTISRDNAKNTVYLQMNSLKPEDTAVYYCAAETPNYYGRWEPVWHYYWGQGTQVTVSS,high polyreactivity
5,QVQLVESGGGLVQAGGSLRLSCAASGSTLARYAMGWYRQAPGKERELVAAISWIGGSTYYADSVKGRFTISRDNAKNTVYLQMNSLKPEDTAVYFCAKDTYPWYIRNRYDYWGQGSQVTVSS,high polyreactivity
6,QVQLVESGGGLVQAGGSLRLSCAASGSTLAVYAMGWYRQAPGKEREFFAAISWSGVSTYYADSVKGRFTISRDNAKNTVYLQMNSLKPEDTAVYYCAAKRVRALYGGSEGGYWGQGTQVTVSS,low polyreactivity
7,QVQLVESGGGLVQAGGSLRLSCAASGSTLDFYAMGWYRPAPGKERELVAAITWRGGSTYYADSVKGRFTISRDNAKNTVYLQMNCLKPEDTAVYYCAAKSYWLKSQYYSWGQGTQVTVSS,high polyreactivity
8,QVQLVESGGGLVQAGGSLRLSCAASGSTLDRYVMGWYRQAPGKERELVAAISRNGGSTYYADSVKGRFTISRDNAKNTVYLQMNSLKPEDTAVYYCARYAGFPYTQGDYWGQGTQVTVSS,high polyreactivity
9,QVQLVESGGGLVQAGGSLRLSCAASGSTLDTNAMGWYRQAPGKERELVAVIDSGGTTNYADSVKGRFTISRDNAKNTVYLQMNSLKPEDTAVYYCAADYAYFGYWFEGYDYWGQGTQVTVSS,low polyreactivity
10,QVQLVESGGGLVQAGGSLRLSCAASGSTLERNAMGWYRQAPGKERELVAAITSSTGSTYYADSVKGRFTISRDNAKNTVYLQMNSLKPEDTAVYYFAKRVASVQSNRHDYWGQGTQVTVSS,high polyreactivity
11,QVQLVESGGGLVQAGGSLRLSCAASGSTLFNYTMGWYRQAPGKESELVAAISSGGSTNYADSEKGRFTISRDNAKNTFYLQMNSLKPEDTAVYYCATDHDPWSWYRYDYWGQGTQVTVSS,low polyreactivity
12,QVQLVESGGGLVQAGGSLRLSCAASGSTLFVNTKGWYRQAPGNERELVAAITSSGGSRYYADSVKGRFTISRDNAKNTVYLQMNSLKPQDTAVYYCAAKELGSPYDYWGQGTQVTVSS,high polyreactivity
13,QVQLVESGGGLVQAGGSLRLSCAASGSTLFWNAMGWYRKAPGKERELVAVISFSGVSTYYADSVKGRFTISRDNAKNTVYLQLNSLKPEDTAVYYCAAGRCLYYYYGYVDKYGYWGQGTQVTVSS,low polyreactivity
14,QVQLVESGGGLVQAGGSLRLSCAASGSTLGGNAMGWYRQAPGKERELVAAITSSAGSTYYADSVKGRFTISRDNAKNTVYLQMNSLKPEDTAVYYCATSRDYIGYDYWGQGTQVTVSS,low polyreactivity
15,QVQLVESGGGLVQAGGSLRLSCAASGSTLGRNAMGWDRQAPGKERELVASITRSGGSTYYADSVKGRFTISRDNAKNTVYLQMNSLKPEDTAVYYCAAEVQGQVGEFDYWGQGTQVTVSS,low polyreactivity
16,QVQLVESGGGLVQAGGSLRLSCAASGSTLGSNAMGWYRQAPGKERELVAAITWSGGTTYYADSVKGRFTISRDNAKNTVYLQMNSLKPEDTAVYYCATGQSVIYRYEYWGQGTQVSVSS,low polyreactivity
17,QVQLVESGGGLVQAGGSLRLSCAASGSTLGSNAMGWYRQAPGKERELVAAITWSGGTTYYADSVKGRFTISRDNAKNTVYLQMNSMKPEDSAVYYCNAERGSGVWWKIWGSDPDDYWGQGTQVTVSS,low polyreactivity
18,QVQLVESGGGLVQAGGSLRLSCAASGSTLGSNARGWYRQAPGKERALVAAITWSGGTTYYADSVKGRFTISRDNAKNPVYLQMNSLKPEDTAVYYCATGQSVIYRYDYWGQGTQVTVSS,low polyreactivity
19,QVQLVESGGGLVQAGGSLRLSCAASGSTLGVYVMGWYRQAPGKERELVAAISRNGGSTYYADSVKGRFTISRDNAKITVYLQMNSLKPEDTAVYYCAARTVGRKAGFDYWGQGTQVTVSS,high polyreactivity
20,QVQLVESGGGLVQAGGSLRLSCAASGSTLGYYVMGWYRQAPGKERELVAAITGGGSTDYADSVKGRFTISRDNAKNTVYLQMNSLKPEDTAVDYCAAERTRTGQLFCWGPIYEYWGQGTQVTVSS,low polyreactivity
21,QVQLVESGGGLVQAGGSLRLSCAASGSTLHEYVMGWYRQAPGKGRELVAAISRRGDSTYYADSVKGRFTISRDNAKNTVYLQMNSLKPEDTAVYYCAARWYWYWSSWDYYSWGQGTQVTVSS,low polyreactivity
22,QVQLVESGGGLVQAGGSLRLSCAASGSTLHVYVMGWYRQAPGKERELVAAISYSGGITYYADSVKGRFTISRDNAKNTVYLQMNSLKPEDTAVYYCAARIISYRVRGKSRHDYWGQGTQVTVSS,low polyreactivity

row,Sequence,polyreactivity (PSR sort gate)
1,QVQLVESGGGLVQAGGSLRLSCAASGSTLHYNAMGWYRQAPGKERELVARISWSGGSTYYADSVKGRFTISRDTAKNTVYLQMNSLKPEDTAVYYCAAPRYGHYTWLYDYWGQGTQVTVSS,low polyreactivity
2,QVQLVESGGGLVQAGGSLRLSCAASGSTLNSYVMGWYRQAPGKERELVATIRSGSSTNYADSVKGRFTISLDNAKNTVYLQMNSLKPVDTAVYYCSRDDRLAGDYWGQGTQVTVSS,low polyreactivity
3,QVQLVESGGGLVQAGGSLRLSCAASGSTLPGNVMGWYRQAPGKERELVAAISKRGASTYYADSVKGRFTISRDNAKYTVYLLMNSLKPEDTAVYYCATRTRGSVFRFDYWGQGTQVTVSS,high polyreactivity
4,QVQLVESGGGLVQAGGSLRLSCAASGSTLPTNAMGWYRQAPGKEREFVAAISDNGGSTYYADSVKGRFTISRDNAKNTVYLQMNSLKPEDTAVYYCAADWDESYSYRRYGHYDYWGQGTQVTVSS,low polyreactivity
5,QVQLVESGGGLVQAGGSLRLSCAASGSTLRDYVMGWYRQAPGKERELVAAITSRVDDTYYADSVKGRFTISRDNAKNTVYLQMNSLKPEDTAVYYCAKRYGRFYHYDYWGQGTQVTVSS,low polyreactivity
6,QVQLVESGGGLVQAGGSLRLSCAASGSTLRGNARGCYRQAPGKEREFVAAISSSGGRTYYADSVKGRFTISRDNAKNTVYLQMTSLNPEDTAVYYCAAAGYQYYFSSVPRAYYYWGQGTLVTVSS,high polyreactivity
7,QVQLVESGGGLVQAGGSLRLSCAASGSTLRTYAMGWYRQAPGKERELVAAISFSTTSTYYADSVKGRFTISRDNAKNTVYLQMNSLKPEDTAVYYCAAEYWYYWEYEYWGQGTQVTVSS,high polyreactivity
8,QVQLVESGGGLVQAGGSLRLSCAASGSTLRWNTMGWYRQAPGKERQLVARISKSGGSTSYADSVKGRLTISRDNAKNTVYLQMNSLKPEDTAVYYCAKTPSQGYVFSYRWGDYWGQGTQVTVSS,high polyreactivity
9,QVQLVESGGGLVQAGGSLRLSCAASGSTLSFNAMGWYRQAPGKERELVAGITYSGGSTYYADSVKGRFTISRDNAKNTVYLQMNSLKPEDTAVYYCNKSSGVYYGHLDYWGQGTQVTVSS,low polyreactivity
10,QVQLVESGGGLVQAGGSLRLSCAASGSTLSGYVMGWYRQAPGKERELVAGISQSGASTYYADSVKGRFTISRDNAKNTVYLQMNSLKPEDTAVYYCAAVARYLLKYRRYGYWGQGTQVTVSS,high polyreactivity
11,QVQLVESGGGLVQAGGSLRLSCAASGSTLSQYAMGWYRQAPGKERELVAAISGGGRTYYADSVKGRFTISRDNAKNTVYLQMNSLKPEDTAVYYCAKVRLKKGTRDSYDYWGQGTQVTVSS,high polyreactivity
12,QVQLVESGGGLVQAGGSLRLSCAASGSTLSRYVMGWSRHAPGKERELVASISWSGTRTYYADSVKGRFTISRDNAKNTVYLQMNSLIPEDTAVYYCNAVSRGGRLYDYWGQGTQVTVSS,high polyreactivity
13,QVQLVESGGGLVQAGGSLRLSCAASGSTLSWYAMGWYRQAPGKERELVAAITRGGSTYYADSVKGRFTISRDNAKNTVYLQMNSLKPEDTAVYYCNAGRDGSRFQYRYDYWGQGTQVTVSS,low polyreactivity
14,QVQLVESGGGLVQAGGSLRLSCAASGSTLTRHAMGWYRQAPGKERELVAAITSGGRTKYADSVKGRFTISRDNAKYTVYLHMNSLKPEDTAVYYCAKGGPPGQRGYDYWGQGTQVTVSS,high polyreactivity
15,QVQLVESGGGLVQAGGSLRLSCAASGSTLVDNGMGWYRHAPGKERELVASISSDGSTNYADSVKGRFTISRDNAKYTVYLQMNSLKTEDPAVYYCAADEGTGQASLSSNLSDYWGQGTQVTVSS,low polyreactivity
16,QVQLVESGGGLVQAGGSLRLSCAASGSTLVGYDMGWYRQAHGKEMELVADITSTGSTNYADSVKGSFTISRDNAKNTVYLQMNSLKPEDTAVYYCAADLYFYIYSYNYWGQGTQVTVSS,low polyreactivity
17,QVQLVESGGGLVQAGGSLRLSCAASGSTLVIYAMGWSRQAPGKEREFVAAIRWSTGRTYYADSVKGRFTISRDNAKNTVYLQMNSLKPEDTAVYYCNASYWAPNSLPDGFRYDSWGQGTQVTVSS,high polyreactivity
18,QVQLVESGGGLVQAGGSLRLSCAASGSTLVKYAMGWYRQAPGKERELVARITLNGGRTYYADSVKGRFTISRDNAKNTVYLQMNSLKPEDTAVYYCAKSLPHSTSRDYWGQGTQVTVSS,low polyreactivity
19,QVQLVESGGGLVQAGGSLRLSCAASGSTLVLNAMGWYRQAPGKERELVAAITISGDTTYYADSVKGRFTISRDNAKNTVYLQMNSLKPEDTAVYYCAAVVSTVDGMEYWGQGTQVTVSS,low polyreactivity
20,QVQLVESGGGLVQAGGSLRLSCAASGSTLVTNAMGWYRQAPGKERELVAAITFSGGTTYYADSVKGRFTISRDNAKNTFYLQMNSLKPEDTAVYYCAAEIWLEYVGYDYWGQGTQVTVSS,high polyreactivity
21,QVQLVESGGGLVQAGGSLRLSCAASGSTLVTYAMGWYRQAPGKERELVAAISWRGGSTYYADSVKGRFTISRDNAKNTVYLQMNSLKPEDTAVYYCIKLRAYKESETYYYWGQGTQVTVSS,low polyreactivity
